The chains are these.
T1: SHANK1 PDZ (human, aa 652-761) (human, UniProt Q9Y566 652-761)
T1 construct: Shank1, human, PDZ, aa 652-761 in pETM-33; source: E. coli BL21 Gold (DE3), purified (Ni2+ Sepharose; tag removed with HRV3C protease)
T1 sequence (looked up): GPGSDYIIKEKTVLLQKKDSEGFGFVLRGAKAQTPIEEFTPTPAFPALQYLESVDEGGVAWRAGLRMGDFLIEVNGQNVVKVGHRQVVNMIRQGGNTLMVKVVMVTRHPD

B1: RPHTNETSL (MCC peptide, unphosphorylated, unlabelled) (peptide)
peptide: RPHTNETSL
notes: C-terminal peptide of human MCC; also called unphosphorylated MCC; source: synthetic peptide, bought: GeneCust
B2: MKRLTSTRL (RPS6KA2 peptide, unphosphorylated, unlabelled) (peptide)
peptide: MKRLTSTRL
notes: C-terminal peptide of human RPS6KA2; also called unphosphorylated RPS6KA2; unphosphorylated ligand; source: synthetic peptide, bought: GeneCust
B3: FITC-HTNETpSL (MCC peptide, p-1 phosphorylated) (peptide)
peptide: {FITC}-HTNET[pS]L
notes: C-terminal seven residues of MCC, human; also called pMCC; source: synthetic peptide, bought: GeneCust
B4: FITC-KREFIESNV (TANC1 peptide, phosphomimetic at p-6) (peptide)
peptide: {FITC}-KREFIESNV
notes: also called Mimetic TANC1; source: synthetic peptide, bought: GeneCust
B5: FITC-KRpSFIESNV (TANC1 peptide, p-6 phosphorylated) (peptide)
peptide: {FITC}-KR[pS]FIESNV
notes: C-terminal nine residues of TANC1, human; also called pTANC1; source: synthetic peptide, bought: GeneCust
B6: FITC-RLTpSTRL (RPS6KA2 peptide, p-3 phosphorylated) (peptide)
peptide: {FITC}-RLT[pS]TRL
notes: C-terminal seven residues of RPS6KA2, human; the methods give pS at this position; also called pRPS6KA2; source: synthetic peptide, bought: GeneCust
B7: FITC-HTNETEL (MCC peptide, phosphomimetic at p-1) (peptide)
peptide: {FITC}-HTNETEL
notes: also called Mimetic MCC; source: synthetic peptide, bought: GeneCust
B8: FITC-RLTETRL (RPS6KA2 peptide, phosphomimetic at p-3) (peptide)
peptide: {FITC}-RLTETRL
notes: C-terminal seven residues of RPS6KA2, human, with S730E; also called Mimetic RPS6KA2; source: synthetic peptide, bought: GeneCust
B9: FITC-RLTSTRL (RPS6KA2 peptide, unphosphorylated) (peptide)
peptide: {FITC}-RLTSTRL
notes: C-terminal seven residues of RPS6KA2, human; source: synthetic peptide, bought: GeneCust
B10: FITC-HTNETSL (MCC peptide, unphosphorylated) (peptide)
peptide: {FITC}-HTNETSL
notes: C-terminal seven residues of MCC, human; source: synthetic peptide, bought: GeneCust
B11: FITC-KRSFIESNV (TANC1 peptide, unphosphorylated) (peptide)
peptide: {FITC}-KRSFIESNV
notes: C-terminal nine residues of TANC1, human; source: synthetic peptide, bought: GeneCust
B12: FITC-KRpSFIESNV, p-6 phosphorylated TANC1 peptide (peptide)
peptide: {FITC}-KR[pS]FIESNV
notes: also called TANC1 Phosphorylated; source: synthetic peptide (GeneCust)
B13: FITC-RLTpSTRL, p-3 phosphorylated RPS6KA2 peptide (peptide)
peptide: {FITC}-RLT[pS]TRL
notes: also called RPS6KA2 Phosphorylated; source: synthetic peptide (GeneCust)
B14: FITC-KRSFIESNV, unphosphorylated TANC1 peptide (peptide)
peptide: {FITC}-KRSFIESNV
notes: also called TANC1 Unphosphorylated; source: synthetic peptide (GeneCust)
B15: FITC-RLTETRL, phosphomimetic (p-3) RPS6KA2 peptide (peptide)
peptide: {FITC}-RLTETRL
notes: also called RPS6KA2 Mimetic; source: synthetic peptide (GeneCust)
B16: FITC-RLTSTRL, unphosphorylated RPS6KA2 peptide (peptide)
peptide: {FITC}-RLTSTRL
notes: C-terminal peptide of human RPS6KA2 (RLTSTRL-coo-); also called RPS6KA2 Unphosphorylated; source: synthetic peptide (GeneCust)

Square brackets hold non-standard residues; d marks the D form. Ends that are not written are not given here. * marks the point of attachment. FITC = O=C1OC2(c3ccc(O)cc3Oc3cc(O)ccc32)c2ccc(NC(=S)*)cc21; pS = N[C@@H](COP(=O)(O)O)C(=O)O

T5 sequence (Q12959 311-407): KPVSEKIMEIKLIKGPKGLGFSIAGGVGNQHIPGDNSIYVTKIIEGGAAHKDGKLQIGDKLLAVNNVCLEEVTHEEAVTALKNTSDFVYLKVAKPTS
T4 sequence (Q12959 311-407): as above
T3 sequence (Q14160 719-829): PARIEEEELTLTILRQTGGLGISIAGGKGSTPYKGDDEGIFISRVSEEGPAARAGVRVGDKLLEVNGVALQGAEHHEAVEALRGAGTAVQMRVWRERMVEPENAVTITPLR
T2 sequence (Q14160 719-829 A743R/R762A): as the sequence (Q14160 719-829) above, with A25R, R44A counted along it

One assay has as its target T2, Scribble PDZ1 R762A/A743R (human, UniProt Q14160 719-829, R762A | A743R).
T2 construct: human Scribble, PDZ1, aa 719-829, A743R introduced in the background of R762A; also called R762A/A743R mutant; source: E. coli BL21 Gold (DE3), purified (Ni2+ Sepharose), dialysed
The assay can be described thus: ITC; iTC200, 25°C, 20 mM HEPES pH 7.4; protein 50-100 μM in the cell, peptide 0.64-3 mM in the syringe; single-site fit, stoichiometry fixed to 0.8-1.1; n = 3. The note with it: both partners purified. Background: In ITC the heat of successive injections is recorded.
Turning to B1, the binding result is listed as “binds”.
Consider B2, for which the binding result is “binds”.

A further assay concerns the target T3, Scribble PDZ1 (human, aa 719-829) (human, UniProt Q14160 719-829).
T3 construct: Scribble, human, PDZ1, aa 719-829 in pETM-11; The His tag was cleaved only for the NMR samples; nothing is said of cleavage for MST and ITC; also called Scribble PDZ1 wild type; source: E. coli BL21 Gold (DE3), purified (Ni2+ Sepharose)
Kind of assay: MST; FITC-labelled peptide fixed at 25-50 nM, PDZ domain titrated (1:1 dilution series); 50 mM Tris-HCl pH 7.4, 0.1% Tween-20; thermophoresis and T-Jump signal; triplicate. The following applies: both partners purified.
For orientation: Kd means the constant that tells how readily two partners part at equilibrium. In turn, B3 had a Kd of 0.6 µM.
For B4, the Kd was 52 µM.
B5 returned a Kd of 101 µM.
The same measure, in the same setting: in the case of B6 it was 1.7 µM; in that of B7, 1.1 µM.
B8 showed a Kd of 0.7 µM.
The same measure, in the same setting: in the case of B9 it was 8.9 µM.
Regarding B10, the Kd is 1.8 µM.
For B11, the Kd stood at 42 µM.

The next assay addresses T4, DLG1 PDZ2 (human, aa 311-407) (human, UniProt Q12959 311-407).
T4 construct: DLG1, human, PDZ2, aa 311-407 in a modified pRSET vector; also called DLG PDZ2; source: E. coli BL21 Gold (DE3), purified (Ni2+ Sepharose)
The description is as above. The following applies: both partners purified.
Molecule B4 came in with a Kd of 5.1 µM.
Same read-out and setting: with B5 the figure was 6.1 µM; with B6, 72 µM.
Molecule B7 gave an equilibrium dissociation constant (Kd) of 21 µM.
B8: the dissociation constant (Kd) amounted to 14 µM.
Same read-out and setting: with B9 the figure was 95 µM.
The molecule B11 gave a dissociation constant (Kd) of 2.7 µM.

Another assay addresses T5, DLG1 PDZ2 (human DLG1 PDZ2 aa 311-407) (human, UniProt Q12959 311-407).
T5 construct: Disks large homolog 1 (DLG1), human, second PDZ domain, aa 311-407, in a modified pRSET vector (Chi et al, 2009); removal of the His tag is told only for the NMR sample of Scribble PDZ1 and for SHANK1 PDZ; also called DLG PDZ2; source: E. coli BL21 Gold (DE3), purified (Ni2+ Sepharose), dialyzed into 50 mM Tris-HCl pH 7.4
The assay can be described thus: MST; FITC-labeled peptide fixed at 25-50 nM, DLG1 PDZ2 titrated (1:1 dilution series); 50 mM Tris-HCl pH 7.4, 0.1% Tween-20; KD from thermophoresis and T-Jump signal; n = 3. The note with it: both partners purified.
B12 registered a Kd of 6.1 µM.
On the same count and under the same terms, with B13 the figure was 72 µM; with B14, 2.7 µM; with B15, 14 µM.
Regarding B16, the affinity, expressed as Kd, was 95 µM.

The next assay has as its target T1, SHANK1 PDZ (human, aa 652-761). The assay can be described thus: MST; FITC-labelled peptide fixed at 25-50 nM, untagged SHANK1 PDZ titrated (1:1 dilution series); PBS, 10 mM MgCl2, 0.05% Tween-20; thermophoresis and T-Jump signal; triplicate. The following applies: both partners purified.
B3 yielded a Kd of 47 µM.
The same measure, in the same setting: in the case of B6 it was 16 µM; in that of B7, 52 µM.
In the case of B8, the Kd worked out at 62 µM.
The molecule B9 displayed a Kd of 4.5 µM.
Consider B10, for which the dissociation constant Kd is 15 µM.

The values above are taken from paper PMC6100724, “Proteome‐wide analysis of phospho‐regulated PDZ domain interactions” (Molecular Systems Biology, 2018).
